How the values were obtained:
native BoNT/A H chain = native BoNT/A H chain (UniProt P0DPI0)
native TeTx H chain [1] = target: native TeTx H chain (UniProt P04958)
native TeTx H chain [2] = target: T1, native TeTx H chain (UniProt P04958 458-1315); assay: reassociation by dialysis, non-reducing SDS-PAGE, silver staining
T1 sequence: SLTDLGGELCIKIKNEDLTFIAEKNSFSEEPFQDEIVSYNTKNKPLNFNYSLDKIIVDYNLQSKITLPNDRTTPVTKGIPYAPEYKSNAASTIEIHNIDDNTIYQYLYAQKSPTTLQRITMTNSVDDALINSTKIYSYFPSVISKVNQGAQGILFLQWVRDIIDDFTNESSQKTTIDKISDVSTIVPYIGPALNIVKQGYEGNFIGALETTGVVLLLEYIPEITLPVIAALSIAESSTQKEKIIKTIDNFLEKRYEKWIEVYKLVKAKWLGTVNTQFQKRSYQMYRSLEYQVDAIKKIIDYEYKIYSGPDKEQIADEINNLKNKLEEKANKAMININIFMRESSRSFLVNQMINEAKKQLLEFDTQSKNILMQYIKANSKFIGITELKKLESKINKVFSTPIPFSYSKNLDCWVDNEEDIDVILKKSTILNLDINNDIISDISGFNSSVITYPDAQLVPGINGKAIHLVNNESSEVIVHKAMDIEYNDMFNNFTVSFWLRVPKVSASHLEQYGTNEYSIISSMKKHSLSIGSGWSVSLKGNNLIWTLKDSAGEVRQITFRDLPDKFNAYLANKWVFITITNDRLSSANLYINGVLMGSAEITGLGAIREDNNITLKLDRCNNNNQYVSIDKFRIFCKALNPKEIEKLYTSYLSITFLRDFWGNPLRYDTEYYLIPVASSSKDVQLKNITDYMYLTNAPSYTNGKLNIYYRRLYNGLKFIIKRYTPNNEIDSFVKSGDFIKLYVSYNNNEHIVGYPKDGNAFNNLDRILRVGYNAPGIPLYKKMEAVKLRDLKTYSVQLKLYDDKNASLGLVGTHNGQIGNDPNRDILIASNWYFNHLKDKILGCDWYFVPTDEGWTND

Sequence of native BoNT/A H chain (P0DPI0 449-1296 limits assumed): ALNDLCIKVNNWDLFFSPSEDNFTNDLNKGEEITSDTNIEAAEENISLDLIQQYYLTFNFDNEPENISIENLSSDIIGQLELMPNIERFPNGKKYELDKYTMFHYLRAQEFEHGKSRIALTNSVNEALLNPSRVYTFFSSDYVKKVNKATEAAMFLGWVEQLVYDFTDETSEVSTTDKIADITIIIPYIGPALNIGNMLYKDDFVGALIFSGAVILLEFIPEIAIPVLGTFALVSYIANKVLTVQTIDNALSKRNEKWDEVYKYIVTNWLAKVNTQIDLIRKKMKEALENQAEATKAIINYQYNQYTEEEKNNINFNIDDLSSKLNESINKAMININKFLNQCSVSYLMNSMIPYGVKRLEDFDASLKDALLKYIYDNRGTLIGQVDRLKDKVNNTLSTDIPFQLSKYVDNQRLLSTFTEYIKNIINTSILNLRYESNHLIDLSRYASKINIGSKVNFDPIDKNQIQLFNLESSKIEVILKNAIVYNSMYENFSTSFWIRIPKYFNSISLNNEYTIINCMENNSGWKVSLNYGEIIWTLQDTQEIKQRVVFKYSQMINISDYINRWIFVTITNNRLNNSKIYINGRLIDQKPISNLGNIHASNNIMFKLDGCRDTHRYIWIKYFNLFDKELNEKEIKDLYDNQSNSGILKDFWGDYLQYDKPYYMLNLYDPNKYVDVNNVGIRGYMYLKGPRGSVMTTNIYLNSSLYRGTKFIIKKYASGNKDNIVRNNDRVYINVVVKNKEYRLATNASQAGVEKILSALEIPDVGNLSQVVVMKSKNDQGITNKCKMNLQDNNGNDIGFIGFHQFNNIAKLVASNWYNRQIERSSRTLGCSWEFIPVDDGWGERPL

## native BoNT/A L chain (from UniProt P0DPI0 2-448) (enzyme)
Native BoNT/A H chain
  proportion of L chain reassociated with the H chain: > 90%

## recombinant wild-type TeTx L chain (from UniProt P04958 1-457) (enzyme)
Native TeTx H chain [1]
  relative amount of the dichain species: 55.1%

B1: native TeTx L chain (enzyme)
chain: PITINNFRYSDPVNNDTIIMMEPPYCKGLDIYYKAFKITDRIWIVPERYEFGTKPEDFNPPSSLIEGASEYYDPNYLRTDSDKDRFLQTMVKLFNRIKNNVAGEALLDKIINAIPYLGNSYSLLDKFDTNSNSVSFNLLEQDPSGATTKSAMLTNLIIFGPGPVLNKNEVRGIVLRVDNKNYFPCRDGFGSIMQMAFCPEYVPTFDNVIENITSLTIGKSKYFQDPALLLMHELIHVLHGLYGMQVSSHEIIPSKQEIYMQHTYPISAEELFTFGGQDANLISIDIKNDLYEKTLNDYKAIANKLSQVTSCNDPNIDIDSYKQIYQQKYQFDKDSNGQYIVNEDKFQILYNSIMYGFTEIELGKKFNIKTRLSYFSMNHDPVKIPNLLDDTIYNDTEGFNIESKDLKSEYKGQNMRVNTNAFRNVDGSGLVSKLIGLCKKIIPPTNIRENLYNRTA
Native TeTx H chain [2]
  binding result: binds
